In patent US20250250357A1 (NANJING ZAIMING PHARMACEUTICAL, published 2025):

Columns and labels:
human MSLN-R3 protein [1] = target: T1, human MSLN-R3 protein (human, UniProt Q13421 487-598); assay: ELISA on coated antigen, antibody 0.01 nM
T1 construct: also called hMSLN-R3

[2] = target: T2, human MSLN-hFc protein (Acro, Cat. No. MSN-H5253) (human, UniProt Q13421 296-580); assay: ELISA on coated antigen, antibody 1 nM
T2 construct: the method names the coated protein as human MSLN-hFc (Acro); also called human MSLN full-length protein

[3] = target: T2, human MSLN-hFc protein (Acro, Cat. No. …); assay: ELISA on coated antigen, antibody 0.1 nM
[4] = target: T2, human MSLN-hFc protein (Acro, Cat. No. …); assay: ELISA on coated antigen, antibody 0.01 nM
human MSLN-R3 protein [5] = target: T1, human MSLN-R3 protein; assay: ELISA on coated antigen, antibody 0.001 nM
human MSLN-R3 protein [6] = target: T1, human MSLN-R3 protein; assay: ELISA on coated antigen, antibody 0.0001 nM
[7] = target: T2, human MSLN-hFc protein (Acro, Cat. No. …); assay: ELISA on coated antigen, antibody 100 nM
[8] = target: T2, human MSLN-hFc protein (Acro, Cat. No. …); assay: ELISA on coated antigen, antibody 0.001 nM
[9] = target: T2, human MSLN-hFc protein (Acro, Cat. No. …); assay: ELISA on coated antigen, antibody 0.0001 nM
human MSLN-R3 protein [10] = target: T1, human MSLN-R3 protein; assay: ELISA on coated antigen, antibody 100 nM
human MSLN-R3 protein [11] = target: T1, human MSLN-R3 protein; assay: ELISA on coated antigen, antibody 0.1 nM
[12] = target: T2, human MSLN-hFc protein (Acro, Cat. No. …); assay: ELISA on coated antigen, antibody 10 nM
human MSLN-R3 protein [13] = target: T1, human MSLN-R3 protein; assay: ELISA on coated antigen, antibody 1 nM
human MSLN-R3 protein [14] = target: T1, human MSLN-R3 protein; assay: ELISA on coated antigen, antibody 10 nM

T1 sequence (Q13421 495-606, form in doubt): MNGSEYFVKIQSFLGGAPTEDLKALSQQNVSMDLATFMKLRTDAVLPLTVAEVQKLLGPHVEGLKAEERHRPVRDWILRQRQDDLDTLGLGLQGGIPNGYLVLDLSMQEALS
T2 sequence (Q13421 other isoform, or with tags, fused parts or gaps limits assumed): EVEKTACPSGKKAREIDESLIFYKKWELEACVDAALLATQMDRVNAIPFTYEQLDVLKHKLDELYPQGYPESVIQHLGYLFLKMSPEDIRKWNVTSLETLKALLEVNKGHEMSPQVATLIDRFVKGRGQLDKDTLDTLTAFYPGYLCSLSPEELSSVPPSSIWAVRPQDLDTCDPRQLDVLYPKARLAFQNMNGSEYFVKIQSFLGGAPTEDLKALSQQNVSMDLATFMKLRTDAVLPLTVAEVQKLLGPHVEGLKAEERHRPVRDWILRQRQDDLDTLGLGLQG

B1: F7.44.20-H1 (scFv, not shown: small tags and cut ends)
scFv: EVQLVQSGAEVKKPGASVKVSCKASGYTFTDYNMDWVRQAPGQGLEWMGDINPSTGGTIYNQKFNGRVTMTEDKSTSTVYMELSSLRSEDTAVYYCARRRIGTGYFDVWGQGTTVTVSSGGGGSGGGGSGGGGSEIVLTQSPDFQSVTPKEKVTITCSASSSVISSYLSWYQQKPDQSPKLLIYRTSNLASGVPSRFSGSGSGTDFTLTINSLEAEDAATYYCHQWSSFPYTFGGGTKVEIK
notes: also called S009-F7.44.20 humanized antibody VH1 + VL1
OD450 (human MSLN-R3 protein [1]): 0.06 OD450 | OD450 [2]: 1.46 OD450 | OD450 [3]: 0.22 OD450 | OD450 [4]: 0.06 OD450 | OD450 (human MSLN-R3 protein [5]): 0.05 OD450 | OD450 (human MSLN-R3 protein [6]): 0.05 OD450 | OD450 [7]: 3.04 OD450 | OD450 [8]: 0.05 OD450 | OD450 [9]: 0.05 OD450 | OD450 (human MSLN-R3 protein [10]): 2.3 OD450 | OD450 (human MSLN-R3 protein [11]): 0.16 OD450 | OD450 [12]: 2.94 OD450 | OD450 (human MSLN-R3 protein [13]): 1.16 OD450 | OD450 (human MSLN-R3 protein [14]): 2.27 OD450

B2: F7.44.20-H10 (scFv, not shown: small tags and cut ends)
scFv: EVQLVQSGAEVKKPGASVKVSCKASGYTFTDYNMDWVRQAPGQGLEWMGDINPSTGGTIYNQKFNGRVTMTEDKSASTVYMELSSLRSEDTAVYYCARRRIGTGYFDVWGQGTTVTVSSGGGGSGGGGSGGGGSEIVLTQSPDFQSVTPKEKVTITCSASSSVISSYLSWYQQKPDQSPKLLIYRTSNLASGVPSRFSGSGSGTDYTLTINSLEAEDAATYYCHQWSSFPYTFGGGTKVEIK
notes: also called S009-F7.44.20 humanized antibody VH2 + VL2
OD450 (human MSLN-R3 protein [1]): 0.04 OD450 | OD450 [2]: 1.44 OD450 | OD450 [3]: 0.24 OD450 | OD450 [4]: 0.06 OD450 | OD450 (human MSLN-R3 protein [5]): 0.04 OD450 | OD450 (human MSLN-R3 protein [6]): 0.04 OD450 | OD450 [7]: 3.25 OD450 | OD450 [8]: 0.04 OD450 | OD450 [9]: 0.05 OD450 | OD450 (human MSLN-R3 protein [10]): 2.44 OD450 | OD450 (human MSLN-R3 protein [11]): 0.11 OD450 | OD450 [12]: 2.93 OD450 | OD450 (human MSLN-R3 protein [13]): 0.81 OD450 | OD450 (human MSLN-R3 protein [14]): 2.25 OD450

B3: F7.44.20-H9 (scFv, not shown: small tags and cut ends)
scFv: EVQLVQSGAEVKKPGASVKVSCKASGYTFTDYNMDWVRQAPGQGLEWMGDINPSTGGTIYNQKFNGRVTMTEDKSASTVYMELSSLRSEDTAVYYCARRRIGTGYFDVWGQGTTVTVSSGGGGSGGGGSGGGGSEIVLTQSPDFQSVTPKEKVTITCSASSSVISSYLSWYQQKPDQSPKLLIYRTSNLASGVPSRFSGSGSGTDFTLTINSLEAEDAATYYCHQWSSFPYTFGGGTKVEIK
notes: also called S009-F7.44.20 humanized antibody VH2 + VL1
OD450 (human MSLN-R3 protein [1]): 0.04 OD450 | OD450 [2]: 1.3 OD450 | OD450 [3]: 0.19 OD450 | OD450 [4]: 0.06 OD450 | OD450 (human MSLN-R3 protein [5]): 0.04 OD450 | OD450 (human MSLN-R3 protein [6]): 0.04 OD450 | OD450 [7]: 3.25 OD450 | OD450 [8]: 0.05 OD450 | OD450 [9]: 0.05 OD450 | OD450 (human MSLN-R3 protein [10]): 2.52 OD450 | OD450 (human MSLN-R3 protein [11]): 0.11 OD450 | OD450 [12]: 2.97 OD450 | OD450 (human MSLN-R3 protein [13]): 0.72 OD450 | OD450 (human MSLN-R3 protein [14]): 2.1 OD450

B4: F7.44.20-H14 (scFv, not shown: small tags and cut ends)
scFv: EVQLVQSGAEVKKPGASVKVSCKASGYTFTDYNMDWVRQAPGQGLEWMGDINPSTGGTIYNQKFSGRVTMTEDKSASTVYMELSSLRSEDTAVYYCARRRIGTGYFDVWGQGTTVTVSSGGGGSGGGGSGGGGSEIVLTQSPDFQSVTPKEKVTITCSASSSVISSYLSWYQQKPDQSPKLLIYRTSNLASGVPSRFSGSGSGTDYTLTINSLEAEDAATYYCHQWSSFPYTFGGGTKVEIK
notes: also called S009-F7.44.20 humanized antibody VH2a + VL2
OD450 (human MSLN-R3 protein [1]): 0.04 OD450 | OD450 [2]: 1.2 OD450 | OD450 [3]: 0.19 OD450 | OD450 [4]: 0.07 OD450 | OD450 (human MSLN-R3 protein [5]): 0.04 OD450 | OD450 (human MSLN-R3 protein [6]): 0.04 OD450 | OD450 [7]: 3.13 OD450 | OD450 [8]: 0.05 OD450 | OD450 [9]: 0.05 OD450 | OD450 (human MSLN-R3 protein [10]): 1.9 OD450 | OD450 (human MSLN-R3 protein [11]): 0.1 OD450 | OD450 [12]: 2.89 OD450 | OD450 (human MSLN-R3 protein [13]): 0.66 OD450 | OD450 (human MSLN-R3 protein [14]): 1.69 OD450

B5: F7.44.20-H2 (scFv, not shown: small tags and cut ends)
scFv: EVQLVQSGAEVKKPGASVKVSCKASGYTFTDYNMDWVRQAPGQGLEWMGDINPSTGGTIYNQKFNGRVTMTEDKSTSTVYMELSSLRSEDTAVYYCARRRIGTGYFDVWGQGTTVTVSSGGGGSGGGGSGGGGSEIVLTQSPDFQSVTPKEKVTITCSASSSVISSYLSWYQQKPDQSPKLLIYRTSNLASGVPSRFSGSGSGTDYTLTINSLEAEDAATYYCHQWSSFPYTFGGGTKVEIK
notes: also called S009-F7.44.20 humanized antibody VH1 + VL2
OD450 (human MSLN-R3 protein [1]): 0.05 OD450 | OD450 [2]: 1.26 OD450 | OD450 [3]: 0.16 OD450 | OD450 [4]: 0.05 OD450 | OD450 (human MSLN-R3 protein [5]): 0.05 OD450 | OD450 (human MSLN-R3 protein [6]): 0.05 OD450 | OD450 [7]: 3.06 OD450 | OD450 [8]: 0.04 OD450 | OD450 [9]: 0.04 OD450 | OD450 (human MSLN-R3 protein [10]): 2.35 OD450 | OD450 (human MSLN-R3 protein [11]): 0.11 OD450 | OD450 [12]: 2.71 OD450 | OD450 (human MSLN-R3 protein [13]): 0.95 OD450 | OD450 (human MSLN-R3 protein [14]): 2.22 OD450
